Data published in patent US20210206838A1.

What was measured:
Test in all cases: cell-based or functional assay
[1] = target: HIV pseudovirus 0260.v5.c36 (envelope glycoprotein) (HIV)
[2] = target: HIV pseudovirus 0260.v5.c36 (envelope glycoprotein) (human immunodeficiency virus (HIV))
[3] = target: HIV pseudovirus BB1012-11.TC21 (envelope glycoprotein) (human immunodeficiency virus (HIV))
[4] = target: HIV pseudovirus CNE52 (envelope glycoprotein) (HIV)
[5] = target: HIV pseudovirus CNE52 (envelope glycoprotein) (human immunodeficiency virus (HIV))
[6] = target: HIV pseudovirus Ce1176_A3 (envelope glycoprotein) (HIV)
[7] = target: HIV pseudovirus Du172.17 (envelope glycoprotein) (HIV)
[8] = target: HIV pseudovirus Du172.17 (envelope glycoprotein) (human immunodeficiency virus (HIV))
[9] = target: HIV pseudovirus RHPA4259.7 (envelope glycoprotein) (HIV)
[10] = target: HIV pseudovirus RHPA4259.7 (envelope glycoprotein) (human immunodeficiency virus (HIV))
[11] = target: HIV pseudovirus SC05.8C11.2344 (envelope glycoprotein) (HIV)
[12] = target: HIV pseudovirus SC422661.8 (envelope glycoprotein) (human immunodeficiency virus (HIV))
[13] = target: envelope glycoprotein of HIV pseudovirus 263-8 (human immunodeficiency virus (HIV))
[14] = target: envelope glycoprotein of HIV pseudovirus 6952.v1.c20 (human immunodeficiency virus (HIV))
[15] = target: envelope glycoprotein of HIV pseudovirus AC10.0.29 (human immunodeficiency virus (HIV))
[16] = target: envelope glycoprotein of HIV pseudovirus Ce1176_A3 (human immunodeficiency virus (HIV))
[17] = target: envelope glycoprotein of HIV pseudovirus SC05.8C11.2344 (human immunodeficiency virus (HIV))
[18] = target: envelope glycoprotein of HIV pseudovirus X1193_c1 (human immunodeficiency virus (HIV))

Substance: Control (antibody)
- neutralization IC50 [1]: 0.051 µg/mL
- neutralization IC80 [1]: 0.143 µg/mL
- neutralization IC50 [2]: 0.027 µg/mL
- neutralization IC80 [2]: 0.105 µg/mL
- neutralization IC50 [3]: 0.005 µg/mL
- neutralization IC80 [3]: 0.021 µg/mL
- neutralization IC50 [4]: 2.92 µg/mL
- neutralization IC80 [4]: 17.8 µg/mL
- neutralization IC50 [5]: 0.904 µg/mL
- neutralization IC80 [5]: 16.8 µg/mL
- neutralization IC50 [6]: 0.02 µg/mL
- neutralization IC80 [6]: 0.076 µg/mL
- neutralization IC50 [7]: 0.051 µg/mL
- neutralization IC80 [7]: 0.672 µg/mL
- neutralization IC50 [8]: 0.013 µg/mL
- neutralization IC80 [8]: 0.198 µg/mL
- neutralization IC50 [9]: 0.018 µg/mL
- neutralization IC80 [9]: 0.047 µg/mL
- neutralization IC50 [10]: 0.011 µg/mL
- neutralization IC80 [10]: 0.033 µg/mL
- neutralization IC50 [11]: 0.019 µg/mL
- neutralization IC80 [11]: 0.071 µg/mL
- neutralization IC50 [12]: 0.028 µg/mL
- neutralization IC80 [12]: 0.126 µg/mL
- IC50 [13]: 1.12 µg/mL
- IC80 [13]: 9.37 µg/mL
- IC50 [14]: 0.053 µg/mL
- IC80 [14]: 0.373 µg/mL
- IC50 [15]: 0.033 µg/mL
- IC80 [15]: 0.117 µg/mL
- IC50 [16]: 0.018 µg/mL
- IC80 [16]: 0.049 µg/mL
- IC50 [17]: 0.018 µg/mL
- IC80 [17]: 0.084 µg/mL
- IC50 [18]: 0.019 µg/mL
- IC80 [18]: 0.065 µg/mL
